Experiments:
[1] = target: envelope glycoprotein of the R5 isolate YU2, on virus (HIV-1 (YU2 isolate)) (UniProt P35961); assay: cell-based or functional assay
[2] = target: envelope glycoprotein of the R5X4 isolate 89.6, on virus (HIV-1 (89.6 isolate)) (UniProt Q73372); assay: cell-based or functional assay

UniProt P35961, sequence (P35961 32-843): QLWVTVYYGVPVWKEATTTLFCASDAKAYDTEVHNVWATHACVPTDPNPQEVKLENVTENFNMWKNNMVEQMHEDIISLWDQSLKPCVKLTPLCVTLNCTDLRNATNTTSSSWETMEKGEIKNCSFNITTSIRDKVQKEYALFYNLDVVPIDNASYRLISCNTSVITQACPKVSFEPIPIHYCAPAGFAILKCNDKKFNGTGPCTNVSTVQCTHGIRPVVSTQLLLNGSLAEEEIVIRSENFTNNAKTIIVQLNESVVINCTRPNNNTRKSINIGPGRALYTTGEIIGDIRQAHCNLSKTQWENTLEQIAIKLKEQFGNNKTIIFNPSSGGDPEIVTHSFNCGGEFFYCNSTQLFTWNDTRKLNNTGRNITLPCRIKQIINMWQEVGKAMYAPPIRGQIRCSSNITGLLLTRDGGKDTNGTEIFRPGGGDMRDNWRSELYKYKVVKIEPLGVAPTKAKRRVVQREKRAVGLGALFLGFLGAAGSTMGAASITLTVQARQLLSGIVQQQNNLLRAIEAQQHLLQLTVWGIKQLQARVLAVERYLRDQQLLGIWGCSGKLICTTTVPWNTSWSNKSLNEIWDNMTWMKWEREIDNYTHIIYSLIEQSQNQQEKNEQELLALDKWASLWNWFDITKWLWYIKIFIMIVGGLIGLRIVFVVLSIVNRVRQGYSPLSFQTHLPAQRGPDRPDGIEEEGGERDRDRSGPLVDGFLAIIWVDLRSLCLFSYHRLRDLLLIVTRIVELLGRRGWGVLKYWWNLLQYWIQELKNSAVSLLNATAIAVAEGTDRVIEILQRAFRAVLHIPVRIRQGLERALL

Substance: eCD4-Ig (from UniProt P01730 26-203) (Fc fusion)
- IC50 difference between CD4-Ig and eCD4-Ig (fold) [1]: 3 fold
- neutralization of GFP-expressing HIV-1, IC50 [1]: 2 nM
- IC50 difference between CD4-Ig and eCD4-Ig (fold) [2]: 50 fold
- neutralization of GFP-expressing HIV-1, IC50 [2]: 0.6 nM

— patent publication US20110305670A1
